Where “and” joins values, the source holds several entries; their conditions need not be identical. Equal entries are not always repeated. Where two headings read alike, the source gives them in different places.
Experiments:
[1] = target: T1, human NKG2D (recombinant mFc-tagged dimer) (human, UniProt P26718 78-216); assay: SPR, average
T1 construct: also called hNKG2D
T1 sequence (looked up): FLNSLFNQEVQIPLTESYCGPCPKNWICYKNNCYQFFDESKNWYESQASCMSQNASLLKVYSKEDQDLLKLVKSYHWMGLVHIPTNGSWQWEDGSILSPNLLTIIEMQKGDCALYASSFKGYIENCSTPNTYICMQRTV
From the text: (§1) NKG2D is a native dimer, therefore recombinant mFc-tagged NKG2D dimer was used for this experiment. Two different fits were utilized to obtain the equilibrium affinity data: steady state affinity fit and kinetic fit.

[2] = target: T1, human NKG2D (recombinant mFc-tagged …); assay: SPR, steady state fit, average
From the text: as §1

[3] = target: T2, cynomolgus NKG2D (recombinant mFc-tagged dimer) (cynomolgus, UniProt P61252 78-216); assay: SPR, steady state fit, average
T2 construct: also called cyno NKG2D
T2 sequence (looked up): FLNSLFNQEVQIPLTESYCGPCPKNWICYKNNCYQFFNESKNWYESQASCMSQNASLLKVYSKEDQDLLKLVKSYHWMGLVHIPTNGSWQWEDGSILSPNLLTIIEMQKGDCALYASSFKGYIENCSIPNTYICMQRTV
From the text: as §1

[4] = target: T3, human CD32a H131 (human, UniProt P12318 36-218, limits assumed); assay: SPR, steady state
T3 sequence (looked up): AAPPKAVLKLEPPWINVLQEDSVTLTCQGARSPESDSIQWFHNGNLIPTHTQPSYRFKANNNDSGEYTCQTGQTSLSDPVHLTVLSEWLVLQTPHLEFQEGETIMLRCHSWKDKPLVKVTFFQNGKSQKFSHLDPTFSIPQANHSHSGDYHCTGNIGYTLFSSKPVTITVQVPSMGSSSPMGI

[5] = target: T4, human CD64 (human, UniProt P12314 16-288, limits assumed); assay: SPR
T4 construct: also called FcγRI
Experimental: Binding analyses as described in this Example were performed using SPR, as described in Example 4.

[6] = target: T5, cynomolgus monkey BAFF-R expressed on cells (cynomolgus monkey); assay: flow cytometry, cyno BAFF-R CHO cells
T5 construct: whole, on cells; also called cBAFF-R; cynoBAFF-R

[7] = target: T1, human NKG2D (recombinant mFc-tagged …); assay: SPR, kinetics fit
From the text: as §1

[8] = target: T2, cynomolgus NKG2D (recombinant …); assay: SPR, kinetics fit
From the text: Two different fits were utilized to obtain the equilibrium affinity data: steady state affinity fit and kinetic fit.

[9] = target: T6, cynomolgus FcRn (cynomolgus, UniProt Q8SPV9 24-297; Q8SPW0 21-119); assay: SPR, pH 6.0, summary table
T6 construct: also called Cyno FcRn

[10] = target: T1, human NKG2D (recombinant mFc-tagged …); assay: SPR, kinetic fit, after 4 weeks at 40 °C
[11] = target: T7, cynomolgus CD16 (cynomolgus, UniProt Q8SPW2 17-208, limits assumed); assay: SPR
T7 construct: also called Cyno CD16; cynomolgus FcγRIII

[12] = target: T7, cynomolgus CD16; assay: SPR, kinetic fit, average
[13] = target: T1, human NKG2D (recombinant mFc-tagged …); assay: SPR, steady state, control
[14] = target: T8, BCMA expressed on C6 cells (UniProt Q02223 1-184, limits assumed); assay: flow cytometry on BCMA-C6 cells, anti-human Fc-g-PE
T8 construct: whole, on cells; also called BCMA-C6; isogenic BCMA+ cells
T8 sequence (looked up): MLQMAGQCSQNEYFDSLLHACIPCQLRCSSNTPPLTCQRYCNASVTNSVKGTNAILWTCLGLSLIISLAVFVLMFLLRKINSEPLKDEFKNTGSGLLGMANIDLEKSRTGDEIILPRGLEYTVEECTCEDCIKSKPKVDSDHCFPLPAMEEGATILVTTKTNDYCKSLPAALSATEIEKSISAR
From the text: A mAb with known BCMA specificity (EM901) was used as a positive control for BCMA detection.

[15] = target: T9, recombinant human TACI (human, UniProt O14836 2-166, limits assumed); assay: SPR, immobilized AB1424 F3', analyte 500 nM TACI
T9 sequence (looked up): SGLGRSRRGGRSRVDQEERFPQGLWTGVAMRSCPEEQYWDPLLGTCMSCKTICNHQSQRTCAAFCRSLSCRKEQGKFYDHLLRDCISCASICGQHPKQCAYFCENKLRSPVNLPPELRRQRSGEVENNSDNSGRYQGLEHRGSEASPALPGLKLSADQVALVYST

[16] = target: T7, cynomolgus CD16; assay: SPR; remark: listed apart in the source
[17] = target: T10, human BAFF-R expressed on cells (human, UniProt Q96RJ3 1-184); assay: flow cytometry, BJAB cells, after 4 weeks at 40 °C
T10 construct: Cell surface BAFF-R, endogenous on B cell lines and primary B cells or overexpressed on isogenic CHO cells; also called hBAFF-R; hBAFF-R-CHO

[18] = target: T11, human CD32b (human, UniProt P31994 46-217, limits assumed); assay: SPR, steady state, average
T11 construct: also called FcγRIIb
T11 sequence (looked up): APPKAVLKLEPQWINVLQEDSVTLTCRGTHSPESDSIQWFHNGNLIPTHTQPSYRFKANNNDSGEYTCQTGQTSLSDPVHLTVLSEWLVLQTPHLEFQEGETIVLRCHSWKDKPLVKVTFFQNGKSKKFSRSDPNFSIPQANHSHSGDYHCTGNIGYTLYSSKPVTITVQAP

[19] = target: T6, cynomolgus FcRn; assay: SPR, pH 6.0, steady state, average; pH 6.0; average of four replicates

T7 sequence (Q8SPW2 17-208 limits assumed): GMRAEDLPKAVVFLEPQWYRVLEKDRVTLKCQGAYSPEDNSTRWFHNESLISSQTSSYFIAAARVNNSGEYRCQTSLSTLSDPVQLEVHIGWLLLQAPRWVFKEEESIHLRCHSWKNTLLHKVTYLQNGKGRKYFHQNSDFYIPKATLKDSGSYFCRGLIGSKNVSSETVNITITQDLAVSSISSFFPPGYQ
T4 sequence (P12314 16-288 limits assumed): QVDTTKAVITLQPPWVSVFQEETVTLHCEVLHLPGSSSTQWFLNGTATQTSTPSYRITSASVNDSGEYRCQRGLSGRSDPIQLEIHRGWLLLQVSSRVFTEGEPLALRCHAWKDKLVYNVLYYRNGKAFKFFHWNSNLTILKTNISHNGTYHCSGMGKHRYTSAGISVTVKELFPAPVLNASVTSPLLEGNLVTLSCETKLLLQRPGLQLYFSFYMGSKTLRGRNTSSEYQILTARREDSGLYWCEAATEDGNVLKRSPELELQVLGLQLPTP
T6 sequence (Q8SPV9 24-297 limits assumed, chain 1 of 2): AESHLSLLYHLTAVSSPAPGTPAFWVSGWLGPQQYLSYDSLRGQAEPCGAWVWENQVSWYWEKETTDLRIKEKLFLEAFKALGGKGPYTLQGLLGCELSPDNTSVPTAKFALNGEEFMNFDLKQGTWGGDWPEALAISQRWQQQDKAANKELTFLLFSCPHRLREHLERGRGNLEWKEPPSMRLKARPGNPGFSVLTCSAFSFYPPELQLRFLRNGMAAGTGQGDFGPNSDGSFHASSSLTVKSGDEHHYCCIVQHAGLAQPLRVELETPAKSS
T6 sequence (Q8SPW0 21-119 limits assumed, chain 2 of 2): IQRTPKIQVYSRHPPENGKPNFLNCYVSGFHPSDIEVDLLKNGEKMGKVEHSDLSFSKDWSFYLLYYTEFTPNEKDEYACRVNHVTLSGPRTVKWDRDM

koff [1]: 0.11 s⁻¹
kon [1]: 240000 M⁻¹ s⁻¹
Kd [2]: 456 nM
Kd [3]: 520 nM
Kd [4]: 900 nM and 1100 nM and 1000 nM
Kd [5]: 2.9 nM and 3.1 nM and 3.4 nM and 3.2 nM
koff [5]: 0.00022 s⁻¹ and 0.00023 s⁻¹
kon [5]: 77000 M⁻¹ s⁻¹ and 73000 M⁻¹ s⁻¹ and 69000 M⁻¹ s⁻¹ and 72000 M⁻¹ s⁻¹
EC50 [6]: 1.85 nM
Kd [7]: 439 nM and 453 nM and 466 nM and 465 nM
Kd [8]: 609 nM and 617 nM and 572 nM and 587 nM
Kd [9]: 1000 nM
Kd [10]: 493 nM
koff [11]: 0.02 s⁻¹ and 0.021 s⁻¹
kon [11]: 78000 M⁻¹ s⁻¹ and 72000 M⁻¹ s⁻¹
Kd [12]: 271 nM
Kd [13]: 544 nM
binding result [14]: no binding (tested: about 50 nM)
binding result [15]: no binding (tested: 500 nM)
Kd [16]: 261 nM and 269 nM and 283 nM and 260 nM
koff [16]: 0.02 s⁻¹ and 0.021 s⁻¹
kon [16]: 78000 M⁻¹ s⁻¹ and 72000 M⁻¹ s⁻¹
EC50 [17]: 0.83 nM
Kd [18]: 5900 nM
Kd [19]: 1000 nM
B1: AB1424/AB1612 F3′ TriNKET (bispecific antibody, human IgG1, kappa)
chain: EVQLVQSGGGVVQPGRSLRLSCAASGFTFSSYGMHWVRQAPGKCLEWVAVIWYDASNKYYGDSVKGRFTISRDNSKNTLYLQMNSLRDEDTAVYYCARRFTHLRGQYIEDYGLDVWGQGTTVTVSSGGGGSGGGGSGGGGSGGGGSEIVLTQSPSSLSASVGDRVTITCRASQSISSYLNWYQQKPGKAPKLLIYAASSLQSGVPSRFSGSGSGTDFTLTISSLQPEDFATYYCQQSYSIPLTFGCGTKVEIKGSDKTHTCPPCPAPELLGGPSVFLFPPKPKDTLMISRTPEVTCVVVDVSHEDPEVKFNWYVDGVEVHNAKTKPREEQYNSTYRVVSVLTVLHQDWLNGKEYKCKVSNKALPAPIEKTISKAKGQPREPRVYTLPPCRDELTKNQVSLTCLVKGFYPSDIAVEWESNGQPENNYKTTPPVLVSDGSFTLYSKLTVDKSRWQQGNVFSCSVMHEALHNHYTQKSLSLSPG
heavy: EVQLVESGGGLVKPGGSLRLSCAASGFTFSSYSMNWVRQAPGKGLEWVSSISSSSSYIYYADSVKGRFTISRDNAKNSLYLQMNSLRAEDTAVYYCARGAPIGAAAGWFDPWGQGTLVTVSSASTKGPSVFPLAPSSKSTSGGTAALGCLVKDYFPEPVTVSWNSGALTSGVHTFPAVLQSSGLYSLSSVVTVPSSSLGTQTYICNVNHKPSNTKVDKKVEPKSCDKTHTCPPCPAPELLGGPSVFLFPPKPKDTLMISRTPEVTCVVVDVSHEDPEVKFNWYVDGVEVHNAKTKPREEQYNSTYRVVSVLTVLHQDWLNGKEYKCKVSNKALPAPIEKTISKAKGQPREPQVCTLPPSRDELTENQVSLTCLVKGFYPSDIAVEWESNGQPENNYKTTPPVLDSDGSFFLYSWLTVDKSRWQQGNVFSCSVMHEALHNHYTQKSLSLSPG
light: DIQMTQSPSSVSASVGDRVTITCRASQGISSWLAWYQQKPGKAPKLLIYAASSLQSGVPSRFSGSGSGTDFTLTISSLQPEDFATYYCQQGVSFPRTFGGGTKVEIKRTVAAPSVFIFPPSDEQLKSGTASVVCLLNNFYPREAKVQWKVDNALQSGNSQESVTEQDSKDSTYSLSSTLTLSKADYEKHKVYACEVTHQGLSSPVTKSFNRGEC
notes: Chain S: anti-BAFF-R scFv-CH2-CH3; chain H: anti-NKG2D VH-CH1-CH2-CH3; chain L: anti-NKG2D VL-CL; also called AB1612-002

From US20240360223A1 (DRAGONFLY THERAPEUTICS, published 2024)
